The record followed here is publication PMC8529494, “KAT6A Acetylation of SMAD3 Regulates Myeloid‐Derived Suppressor Cell Recruitment, Metastasis, and Immunotherapy in Triple‐Negative Breast Cancer” (Advanced Science, 2021).

In the experiment the target is T1, (His)6-TRIM24 (UniProt O15164 1-1050).
T1 construct: Tripartite motif-containing 24 (TRIM24); also called tripartite motif-containing 24; source: recombinant, purified
T1 sequence (looked up): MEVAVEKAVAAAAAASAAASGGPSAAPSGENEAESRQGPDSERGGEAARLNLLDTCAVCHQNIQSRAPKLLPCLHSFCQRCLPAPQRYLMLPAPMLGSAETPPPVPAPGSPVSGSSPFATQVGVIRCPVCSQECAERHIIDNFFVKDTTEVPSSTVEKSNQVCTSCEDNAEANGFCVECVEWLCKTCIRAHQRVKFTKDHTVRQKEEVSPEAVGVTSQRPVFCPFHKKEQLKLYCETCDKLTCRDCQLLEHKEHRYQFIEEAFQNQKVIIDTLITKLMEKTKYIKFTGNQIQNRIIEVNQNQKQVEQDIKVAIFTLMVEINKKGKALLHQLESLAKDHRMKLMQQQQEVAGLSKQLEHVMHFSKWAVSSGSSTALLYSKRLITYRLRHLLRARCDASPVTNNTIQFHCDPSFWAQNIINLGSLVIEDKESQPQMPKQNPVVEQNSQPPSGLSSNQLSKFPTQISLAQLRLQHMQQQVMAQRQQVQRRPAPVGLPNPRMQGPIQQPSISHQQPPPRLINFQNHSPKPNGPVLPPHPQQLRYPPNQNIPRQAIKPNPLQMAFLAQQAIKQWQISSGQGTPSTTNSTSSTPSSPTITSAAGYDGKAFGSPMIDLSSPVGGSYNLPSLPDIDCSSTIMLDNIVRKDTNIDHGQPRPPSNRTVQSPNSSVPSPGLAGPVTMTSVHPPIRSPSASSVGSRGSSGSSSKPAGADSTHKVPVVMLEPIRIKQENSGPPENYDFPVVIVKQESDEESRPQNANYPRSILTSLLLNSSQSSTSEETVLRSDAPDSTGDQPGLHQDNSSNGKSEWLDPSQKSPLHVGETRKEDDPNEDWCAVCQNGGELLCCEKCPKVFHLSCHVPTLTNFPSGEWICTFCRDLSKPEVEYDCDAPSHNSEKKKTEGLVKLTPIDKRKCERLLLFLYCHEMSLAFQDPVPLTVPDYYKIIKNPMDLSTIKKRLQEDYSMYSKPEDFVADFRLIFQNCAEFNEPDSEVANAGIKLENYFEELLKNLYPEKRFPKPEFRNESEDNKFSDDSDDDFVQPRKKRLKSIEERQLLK
The experiment in a line: pull-down; GST pull-down with purified GST-SMAD3 and (His)6-TRIM24, western blot with anti-TRIM24 and anti-SMAD3. Conditions: both partners purified. On the technique in general: Immunoblotting shows a protein as a band on a membrane.

B1: GST-SMAD3 (natural protein, UniProt P84022 1-425, looked up)
chain: MSSILPFTPPIVKRLLGWKKGEQNGQEEKWCEKAVKSLVKKLKKTGQLDELEKAITTQNVNTKCITIPRSLDGRLQVSHRKGLPHVIYCRLWRWPDLHSHHELRAMELCEFAFNMKKDEVCVNPYHYQRVETPVLPPVLVPRHTEIPAEFPPLDDYSHSIPENTNFPAGIEPQSNIPETPPPGYLSEDGETSDHQMNHSMDAGSPNLSPNPMSPAHNNLDLQPVTYCEPAFWCSISYYELNQRVGETFHASQPSMTVDGFTDPSNSERFCLGLLSNVNRNAAVELTRRHIGRGVRLYYIGGEVFAECLSDSAIFVQSPNCNQRYGWHPATVCKIPPGCNLKIFNNQEFAALLAQSVNQGFEAVYQLTRMCTIRMSFVKGWGAEYRRQTVTSTPCWIELHLNGPLQWLDKVLTQMGSPSIRCSSVS
notes: SMAD3; also called recombinant GST-SMAD3; source: recombinant, purified
On to B1, for which the binding result was “binds”.
